Measurements reported in the supplement of paper PMC9170038.

What was measured:
MS2 coat protein [1] = assay: apparent KD of MS2 coat protein, switch OFF state (with FMN for OFF switches, without FMN for ON switches); designed switch direction (-1 OFF switch, 1 ON switch): 1; higher = weaker reporter binding; settings: FMN input: 0 or 200 uM; Eterna round: R93 (includes R88 designs)
Outline: (§1)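 Values are apparent KD, taken as the median for each design of fits to normalised binding curves from individual clusters. The designed RNA switches were transcribed on-chip from Illumina sequencing clusters and exposed to SNAP-549-labelled MS2 coat protein at twofold increasing amounts from 0.7 or 1.5 nM to 3 µM. Titration used 100 mM Tris-HCl pH 7.5, 80 mM KCl and 4 mM MgCl2, without or with constant ligand.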

MS2 coat protein [2] = assay: apparent KD of MS2 coat protein, switch ON state; designed switch direction (-1 OFF switch, 1 ON switch): 1; higher = weaker reporter binding; settings: FMN input: 0 or 200 uM; Eterna round: R93 (includes R88 designs)
Outline: as §1

| Sequence | apparent KD of MS2 coat protein (MS2 coat protein [1]) | apparent KD of MS2 coat protein (MS2 coat protein [2]) |
| --- | --- | --- |
| GAAAAACAUGAGGAUCACCCAUGUGAAAACUUGGGAGGAUAUACAAAGACGAAAGUCGAAGUAGAAGGCCUAUAAG [Same State 1.4l (Mat - Mod of Eli - )] | 85.9 nM | 21.1 nM |
| GAAAAACAUGAGGAUCACCCAUGUGAGAAUAUGGGAGGAUAUACGAAGACGAGAGUCAAAGUAGAAGGCCUAAAAG [Mat - Same State 1 - Eli mod - 30] | 82.9 nM | 27.2 nM |
| GAAAAACAUGAGGAUCACCCAUGUGGAAAUAUGGGAGGAUAUACAAAGACGGAAGUCAAAGUAGAAGGCCUAAAAG [Mat - Same State 1 - Eli mod - D10] | 119 nM | 26.5 nM |
| GAAAAACAUGAGGAUCACCCAUGUGUAAAUAUGGGAGGAUAUACAAAGACGUAAGUCAAAGUAGAAGGCCUAAAAG [Mat - Same State 1 - Eli mod - D12] | 95.1 nM | 29.9 nM |
| GAAAUACAUGAGGAUCACCCAUGUUAGGUGGGUCAAGGAUAUUGAGAUAAAUAAAAAUCUCGAGAAGGUGAAUAAA [JR_SS001_Sub202] | 199 nM | 87.7 nM |
| GACGAACAUGAGGAUCACCCAUGUAAAAACGUACAAGGAUAUGUGUGGAAACCGUACUAUACAGAAGGUGUCUGUC [SS1 - 96] | 38.6 nM | 37.3 nM |
| GAGAGACAUGAGGAUCACCCAUGUAGGAUUAUGGGAGGAUAUACAAAGACGAGAGUCAGAGUAGAAGGCCUAGGAA [salish99-ss1-137(!)] | 74.4 nM | 24.2 nM |
| GAGAGGAAGAGAGAGGAUAUCCAAAGGAAAACAUGAGGAUCACCCAUGUAAAAGGUAGGAAAUUGGGAGAAGGCUCAAGAGAGAG [salish99-ss2-063] | 29.6 nM | 29.1 nM |
| GAGAUACAUGAGGAUCACCCAUGUUGAUACAUGGGAGGAUAUACAAGGUCGAAAGAUAAGGUAGAAGGCCUAAAAG [LROPPY Same State 1 - v04_deltaG=3.5] | 15.7 nM | 47.1 nM |
| GAGGACAUAGUACAGGAUAUAUGAAUAGUCACAUGAGGAUCACCCAUGUCCAUUUAUAUGGGCACAUAGAAGGGUGGUAGUUAUC [SameState2 Malc#27] | 347 nM | 24.6 nM |
| GAGGACAUAGUACAGGAUAUAUGAAUAGUCACAUGAGGAUCACCCAUGUGCAUUUAUAUGCGCACAUAGAAGGGUGGUAGUUAUC [SameState2 Malc#28] | 67 nM | 155 nM |
| GAGGACCUAGGAUAGGAUAUGUGAAUAAUUACAUGAGGAUCACCCAUGUCCAUUUAUAUGGGAACAUAGAAGGGUUCUGGUUAUC [SameState2 Malc#38] | 71.9 nM | 51.8 nM |
| GAUAAACAUGAGGAUCACCCAUGUAGAUAUAUGGGAGGAUAUACAAAGACGAUAGUCAAAGUAGAAGGCCUAAUAG [77%, Mat - Mod of Eli - With 4 more U's] | 84 nM | 29.6 nM |
| GCUUAUCCAUGCUAGGAUAUCGGCGAGAAAACAUGAGGAUCACCCAUGUGCUUGCAUAAAAGUCACGAGAAGGAGCCUGAUGGAC [Quanletira] | 17.3 nM | 19.7 nM |
| GGAAGACAUGAGGAUCACCCAUGUGGGAUUAUGGGAGGAUAUACAAAGACGAGAGUCAGAGUAGAAGGCCUAGGAG [salish99-ss1-122(!)] | 107 nM | 61.1 nM |
| GGCUGCAAUUAUGAGGAUAUGUUCGGAUGAACAUGAGGAUCACCCAUGUGGCGAUAGCUAUCUGUGCAGAAGGUGUAGUGGUAGC [Edlexete] | 130 nM | 38.8 nM |
| GGGAGACAUGAGGAUCACCCAUGUAGAAGGAUGGGAGGAUAUACAAAGACGAGAGUCAGAGUAGAAGGCCUAGGAA [salish99-ss1-189-4KCAL] | 58.5 nM | 29 nM |
| GGGAGACAUGAGGAUCACCCAUGUGAGAAGAGGCGAGGAUAUCGAAAGAAAGAAGAGAAACGAGAAGGCGCGAGCC [salish99-SS1-064] | 66.4 nM | 94.2 nM |
| GGGAGGAAGAGAGAGGAUAUCCAAAGGAAAACAUGAGGAUCACCCAUGUAAAAGGUAGGAAAUUGGGAGAAGGCUCAAGAGAACG [salish99-ss2-056] | 28.9 nM | 25.5 nM |
| GUGUAAAGAAUCGAGGAUAUCCAAAAAAGCACAUGAGGAUCACCCAUGUAAGAGAGAGAAUAAUGGGAGAAGGCGAGUUAUCGGU [JR_SS002_Sub1712] | 64.1 nM | 18.1 nM |
| UAGCAGUGCGGGUAGGAUAUGUAGGGUGGUACAUGAGGAUCACCCAUGUAUCCACCCUUCGACCGGCAGAAGGGCCUGUCACUGC [Edor] | 16.9 nM | 17.9 nM |
| UAUCCGGCAGUGUAGGAUAUGUUGUAGUCAACAUGAGGAUCACCCAUGUGGAUUAUAUAAGAUUCACAGAAGGGCACUGCAUUGC [Geiner] | 74.1 nM | 87.8 nM |
| UCGUCCUCGUGCUAGGAUAUCCAUCGUAAAACAUGAGGAUCACCCAUGUAGAAAUGCGCCUACGAGGAGAAGGAGCGAUGUGGAU [Velemageer] | 19 nM | 14.9 nM |
| UGGAAACAUGAGGAUCACCCAUGUAAAAGGUGGUUAGGAUAUGCAAAACGGAAAACGAAAGCAGAAGGGACAAAAA [Inspired by JR and Meechl] | 320 nM | 130 nM |
| UGGAGACAUGAGGAUCACCCAUGUGAGAAGAGGCGAGGAUAUCGAAAAAAAAAAAAAAAACGAGAAGGCGCGAGAA [salish99-SS1-007] | 56.3 nM | 28.9 nM |
| UGUCCACAUGAGGAUCACCCAUGUCAGGAGGUGACAGGAUAUUGCGAAAAAAAAAAAAAGCAAGAAGGGUCUGAUU [SameState1-cac1] | 98.4 nM | 36.4 nM |
| UUACAGCACAGGUAGGAUAUGUAGGGUGGUACAUGAGGAUCACCCAUGUAUCCACCCUUCGAAAGGCAGAAGGGCCUGUCGCCGC [Leanisqube] | 15 nM | 13.1 nM |
